Consider 5 proteins from patent US20230295597.

For data set [1], the target named is T1, von Willebrand factor (vWF), substrate of the ADAMTS-13 activity assay, P04275.
T1 chain: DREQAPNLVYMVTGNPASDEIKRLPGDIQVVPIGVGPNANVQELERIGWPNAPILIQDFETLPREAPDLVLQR

The target of data set [2] is anti ADAMTS-13 autoantibodies in plasma from patients with acquired ADAMTS-13 deficiency (TTP plasma).
Data set [3] deals with ultralarge von Willebrand factor multimers present in human plasma, P04275.

Positions count from the first letter of the chain named. Names and notes keep the numbering of the source.

B1: trADAMTS-13^V313D (truncated ADAMTS-13 mutant, Val313 to Asp) (protein)
chain: AAGGILHLELLVAVGPDVFQAHQEDTERYVLTNLNIGAELLRDPSLGAQFRVHLVKMVILTEPEGAPNITANLTSSLLSVCGWSQTINPEDDTDPGHADLVLYITRFDLELPDGNRQVRGVTQLGGACSPTWSCLITEDTGFDLGVTIAHEIGHSFGLEHDGAPGSGCGPSGHVMASDGAAPRAGLAWSPCSRRQLLSLLSAGRARCVWDPPRPQPGSAGHPPDAQPGLYYSANEQCRDAFGPKAVACTFAREHLDMCQALSCHTDPLDQSSCSRLLVPLLDGTECGVEKWCSKGRCRSLVELTPIAAVHGRWSSWGPRSPCSRSCGGGVVTRRRQCNNPRPAFGGRACVGADLQAEMCNTQACEKTQLEFMSQQCARTDGQPLRSSPGGASFYHWGAAVPHSQGDALCRHMCRAIGESFIMKRGDSFLDGTRCMPSGPREDGTLSLCVSGSCRTFGCDGRMDSQQVWDRCQVCGGDNSTCSPRKGSFTAGRAREYVTFLTVTPNLTSVYIANHRPLFTHLAVRIGGRYVVAGKMSISPNTTYPSLLEDGRVEYRVALTEDRLPRLEEIRIWGPLQEDADIQVYRRYGEEYGNLTRPDITFTYFQPKPRQADYKDHDGDYKDHDIDYKDDDDK
Regarding B1, in data set [1], the “decrease of proteolytic activity on vWF against the un-mutated variant” value was “replacing V^313 with D (trADAMTS-13^V313D) decreased by more than 50% the proteolytic activity of the resultant ADAMTS-13 variant on vWF (FIG. 6B)”.

B2: trADAMTS-13^R312K (truncated ADAMTS-13 mutant, Arg312 to Lys) (protein)
chain: B1 chain with R238K, D239V
Turning to B2, in data set [1], the “catalytic activity on vWF” value is given as “trADAMTS-13^R312K was the most potent variant exhibiting enhanced proteolytic activity on vWF (FIG. 6B), in comparison with the un-mutated protein trADAMTS-13 WT”. Also, the “proteolytic activity on vWF after 2 hours or 24 hours with TTP plasma” value in data set [2] was “The substantial resistance to inhibition of trADAMTS-13^R312K was shown around 2 hours up to 24 hours following incubation with TTP plasma (FIG. 9B)”.

B3: trADAMTS-13^V313A (truncated ADAMTS-13 mutant, Val313 to Ala) (protein)
chain: B1 chain with D239A
Take B3: the “catalytic activity on vWF” value in data set [1] was “Replacing V^313 with A (trADAMTS-13^V313A), also had no significant effect on its proteolytic activity on vWF (FIG. 6B)”.

B4: trADAMTS-13^R312A (truncated ADAMTS-13 mutant, Arg312 to Ala) (protein)
chain: B1 chain with R238A, D239V
On to B4, for which the “catalytic activity on vWF” value in data set [1] is reported as “trADAMTS-13^R312A catalytic activity was not affected significantly by replacing R^312 with A (FIG. 6B)”.

B5: truncated recombinant human ADAMTS-13 variant (MDTCS), trADAMTS-13 WT (protein)
chain: RSAAGGILHLELLVAVGPDVFQAHQEDTERYVLTNLNIGAELLRDPSLGAQFRVHLVKMVILTEPEGAPNITANLTSSLLSVCGWSQTINPEDDTDPGHADLVLYITRFDLELPDGNRQVRGVTQLGGACSPTWSCLITEDTGFDLGVTIAHEIGHSFGLEHDGAPGSGCGPSGHVMASDGAAPRAGLAWSPCSRRQLLSLLSAGRARCVWDPPRPQPGSAGHPPDAQPGLYYSANEQCRVAFGPKAVACTFAREHLDMCQALSCHTDPLDQSSCSRLLVPLLDGTECGVEKWCSKGRCRSLVELTPIAAVHGRWSSWGPRSPCSRSCGGGVVTRRRQCNNPRPAFGGRACVGADLQAEMCNTQACEKTQLEFMSQQCARTDGQPLRSSPGGASFYHWGAAVPHSQGDALCRHMCRAIGESFIMKRGDSFLDGTRCMPSGPREDGTLSLCVSGSCRTFGCDGRMDSQQVWDRCQVCGGDNSTCSPRKGSFTAGRAREYVTFLTVTPNLTSVYIANHRPLFTHLAVRIGGRYVVAGKMSISPNTTYPSLLEDGRVEYRVALTEDRLPRLEEIRIWGPLQEDADIQVYRRYGEEYGNLTRPDITFTYFQPKPRQADYKDHDGDYKDHDIDYKDDDDK
As for B5, in data set [3], the “proteolysis of vWF multimers in human plasma, trADAMTS-13 300 nM, Western blot with anti-vWF antibody” value is listed as “the inactivation of trADAMTS-13 by tPA prevented the proteolysis of ULvWV multimers present in human plasma (FIG. 4D)”.
